US12630600B2 (MEDIMMUNE LIMITED, priority 2022, dated 2026)
Starred links: 1 amine or outer side, 2 acyl side, 3 side chain; linkers in the order of their positions; H or OH if unused. Non-standard residues stand in square brackets, D forms with d. Groups on a side chain read outwards from the residue. No end group written: not given here. *: point of attachment. C20 diacid = O=C(O)CCCCCCCCCCCCCCCCCCC(=O)*; C18 diacid = O=C(O)CCCCCCCCCCCCCCCCC(=O)*; γGlu = O=C(O)[C@H](CCC(=O)[*:2])N[*:1]; αMeF = C[C@](N)(Cc1ccccc1)C(=O)O; AEEA = NCCOCCOCC(=O)O; Aib = CC(C)(N)C(=O)O

Assays:
[1] = molecular target: human GLP-1 receptor (human, UniProt P43220); assay: cell-based or functional assay
[2] = molecular target: human glucagon receptor (human, UniProt P47871); assay: cell-based or functional assay

| Binder | cAMP production EC50 [1] | cAMP production EC50 [2] |
| --- | --- | --- |
| H[Aib]QGTFTSDVSK[αMeF]LESK([AEEA-AEEA-γGlu-C20 diacid])RAQDFVRWLVE[Aib]G-NH2 (N-terminus assumed; SMILES CC(C)C[C@H](NC(=O)[C@H](Cc1c[nH]c2ccccc12)NC(=O)[C@H](CCCNC(=N)N)NC(=O)[C@@H](NC(=O)[C@H](Cc1ccccc1)NC(=O)[C@H](CC(=O)O)NC(=O)[C@H](CCC(N)=O)NC(=O)[C@H](C)NC(=O)[C@H](CCCNC(=N)N)NC(=O)[C@H](CCCCNC(=O)COCCOCCNC(=O)COCCOCCNC(=O)CC[C@H](NC(=O)CCCCCCCCCCCCCCCCCCC(=O)O)C(=O)O)NC(=O)[C@H](CO)NC(=O)[C@H](CCC(=O)O)NC(=O)[C@H](CC(C)C)NC(=O)[C@](C)(Cc1ccccc1)NC(=O)[C@H](CCCCN)NC(=O)[C@H](CO)NC(=O)[C@@H](NC(=O)[C@H](CC(=O)O)NC(=O)[C@H](CO)NC(=O)[C@@H](NC(=O)[C@H](Cc1ccccc1)NC(=O)[C@@H](NC(=O)CNC(=O)[C@H](CCC(N)=O)NC(=O)C(C)(C)NC(=O)[C@@H](N)Cc1c[nH]cn1)[C@@H](C)O)[C@@H](C)O)C(C)C)C(C)C)C(=O)N[C@H](C(=O)N[C@@H](CCC(=O)O)C(=O)NC(C)(C)C(=O)NCC(N)=O)C(C)C) [Peptide 508] | 0.0679 nM | 2.8 nM |
| H[Aib]QGTFTSDVSK[αMeF]LESK([AEEA-AEEA-γGlu-C20 diacid])RAQDFVRWLL[Aib]TE-OH (N-terminus assumed; SMILES CC(C)C[C@H](NC(=O)[C@H](Cc1c[nH]c2ccccc12)NC(=O)[C@H](CCCNC(=N)N)NC(=O)[C@@H](NC(=O)[C@H](Cc1ccccc1)NC(=O)[C@H](CC(=O)O)NC(=O)[C@H](CCC(N)=O)NC(=O)[C@H](C)NC(=O)[C@H](CCCNC(=N)N)NC(=O)[C@H](CCCCNC(=O)COCCOCCNC(=O)COCCOCCNC(=O)CC[C@H](NC(=O)CCCCCCCCCCCCCCCCCCC(=O)O)C(=O)O)NC(=O)[C@H](CO)NC(=O)[C@H](CCC(=O)O)NC(=O)[C@H](CC(C)C)NC(=O)[C@](C)(Cc1ccccc1)NC(=O)[C@H](CCCCN)NC(=O)[C@H](CO)NC(=O)[C@@H](NC(=O)[C@H](CC(=O)O)NC(=O)[C@H](CO)NC(=O)[C@@H](NC(=O)[C@H](Cc1ccccc1)NC(=O)[C@@H](NC(=O)CNC(=O)[C@H](CCC(N)=O)NC(=O)C(C)(C)NC(=O)[C@@H](N)Cc1c[nH]cn1)[C@@H](C)O)[C@@H](C)O)C(C)C)C(C)C)C(=O)N[C@@H](CC(C)C)C(=O)NC(C)(C)C(=O)N[C@H](C(=O)N[C@@H](CCC(=O)O)C(=O)O)[C@@H](C)O) [Peptide 509] | 0.594 nM | 3.02 nM |
| H[Aib]QGTFTSDVSK[αMeF]LDTK([AEEA-AEEA-γGlu-C20 diacid])RARDFVRWLL[Aib]E-OH (N-terminus assumed; SMILES CC(C)C[C@H](NC(=O)[C@H](Cc1c[nH]c2ccccc12)NC(=O)[C@H](CCCNC(=N)N)NC(=O)[C@@H](NC(=O)[C@H](Cc1ccccc1)NC(=O)[C@H](CC(=O)O)NC(=O)[C@H](CCCNC(=N)N)NC(=O)[C@H](C)NC(=O)[C@H](CCCNC(=N)N)NC(=O)[C@H](CCCCNC(=O)COCCOCCNC(=O)COCCOCCNC(=O)CC[C@H](NC(=O)CCCCCCCCCCCCCCCCCCC(=O)O)C(=O)O)NC(=O)[C@@H](NC(=O)[C@H](CC(=O)O)NC(=O)[C@H](CC(C)C)NC(=O)[C@](C)(Cc1ccccc1)NC(=O)[C@H](CCCCN)NC(=O)[C@H](CO)NC(=O)[C@@H](NC(=O)[C@H](CC(=O)O)NC(=O)[C@H](CO)NC(=O)[C@@H](NC(=O)[C@H](Cc1ccccc1)NC(=O)[C@@H](NC(=O)CNC(=O)[C@H](CCC(N)=O)NC(=O)C(C)(C)NC(=O)[C@@H](N)Cc1c[nH]cn1)[C@@H](C)O)[C@@H](C)O)C(C)C)[C@@H](C)O)C(C)C)C(=O)N[C@@H](CC(C)C)C(=O)NC(C)(C)C(=O)N[C@@H](CCC(=O)O)C(=O)O) [Peptide 510] | 0.176 nM | 0.118 nM |
| H[Aib]QGT[αMeF]TSDVSK[αMeF]LDTK([AEEA-AEEA-γGlu-C18 diacid])RAQD[αMeF]VRWLLA[Aib]G-NH2 (N-terminus assumed; SMILES CC(C)C[C@H](NC(=O)[C@H](CC(C)C)NC(=O)[C@H](Cc1c[nH]c2ccccc12)NC(=O)[C@H](CCCNC(=N)N)NC(=O)[C@@H](NC(=O)[C@](C)(Cc1ccccc1)NC(=O)[C@H](CC(=O)O)NC(=O)[C@H](CCC(N)=O)NC(=O)[C@H](C)NC(=O)[C@H](CCCNC(=N)N)NC(=O)[C@H](CCCCNC(=O)COCCOCCNC(=O)COCCOCCNC(=O)CC[C@H](NC(=O)CCCCCCCCCCCCCCCCC(=O)O)C(=O)O)NC(=O)[C@@H](NC(=O)[C@H](CC(=O)O)NC(=O)[C@H](CC(C)C)NC(=O)[C@](C)(Cc1ccccc1)NC(=O)[C@H](CCCCN)NC(=O)[C@H](CO)NC(=O)[C@@H](NC(=O)[C@H](CC(=O)O)NC(=O)[C@H](CO)NC(=O)[C@@H](NC(=O)[C@](C)(Cc1ccccc1)NC(=O)[C@@H](NC(=O)CNC(=O)[C@H](CCC(N)=O)NC(=O)C(C)(C)NC(=O)[C@@H](N)Cc1c[nH]cn1)[C@@H](C)O)[C@@H](C)O)C(C)C)[C@@H](C)O)C(C)C)C(=O)N[C@@H](C)C(=O)NC(C)(C)C(=O)NCC(N)=O) [Peptide 512] | 0.159 nM | 2.31 nM |
| H[Aib]QGT[αMeF]TSDVSK[αMeF]LDTK([AEEA-AEEA-γGlu-C18 diacid])RARD[αMeF]VQWLLA[Aib]G-NH2 (N-terminus assumed; SMILES CC(C)C[C@H](NC(=O)[C@H](CC(C)C)NC(=O)[C@H](Cc1c[nH]c2ccccc12)NC(=O)[C@H](CCC(N)=O)NC(=O)[C@@H](NC(=O)[C@](C)(Cc1ccccc1)NC(=O)[C@H](CC(=O)O)NC(=O)[C@H](CCCNC(=N)N)NC(=O)[C@H](C)NC(=O)[C@H](CCCNC(=N)N)NC(=O)[C@H](CCCCNC(=O)COCCOCCNC(=O)COCCOCCNC(=O)CC[C@H](NC(=O)CCCCCCCCCCCCCCCCC(=O)O)C(=O)O)NC(=O)[C@@H](NC(=O)[C@H](CC(=O)O)NC(=O)[C@H](CC(C)C)NC(=O)[C@](C)(Cc1ccccc1)NC(=O)[C@H](CCCCN)NC(=O)[C@H](CO)NC(=O)[C@@H](NC(=O)[C@H](CC(=O)O)NC(=O)[C@H](CO)NC(=O)[C@@H](NC(=O)[C@](C)(Cc1ccccc1)NC(=O)[C@@H](NC(=O)CNC(=O)[C@H](CCC(N)=O)NC(=O)C(C)(C)NC(=O)[C@@H](N)Cc1c[nH]cn1)[C@@H](C)O)[C@@H](C)O)C(C)C)[C@@H](C)O)C(C)C)C(=O)N[C@@H](C)C(=O)NC(C)(C)C(=O)NCC(N)=O) [Peptide 513] | 0.0938 nM | 1.34 nM |
| H[Aib]QGTFTSDVSK[αMeF]LDTK([AEEA-AEEA-γGlu-C18 diacid])AARDFVQWLLE[Aib]G-NH2 (N-terminus assumed; SMILES CC(C)C[C@H](NC(=O)[C@H](Cc1c[nH]c2ccccc12)NC(=O)[C@H](CCC(N)=O)NC(=O)[C@@H](NC(=O)[C@H](Cc1ccccc1)NC(=O)[C@H](CC(=O)O)NC(=O)[C@H](CCCNC(=N)N)NC(=O)[C@H](C)NC(=O)[C@H](C)NC(=O)[C@H](CCCCNC(=O)COCCOCCNC(=O)COCCOCCNC(=O)CC[C@H](NC(=O)CCCCCCCCCCCCCCCCC(=O)O)C(=O)O)NC(=O)[C@@H](NC(=O)[C@H](CC(=O)O)NC(=O)[C@H](CC(C)C)NC(=O)[C@](C)(Cc1ccccc1)NC(=O)[C@H](CCCCN)NC(=O)[C@H](CO)NC(=O)[C@@H](NC(=O)[C@H](CC(=O)O)NC(=O)[C@H](CO)NC(=O)[C@@H](NC(=O)[C@H](Cc1ccccc1)NC(=O)[C@@H](NC(=O)CNC(=O)[C@H](CCC(N)=O)NC(=O)C(C)(C)NC(=O)[C@@H](N)Cc1c[nH]cn1)[C@@H](C)O)[C@@H](C)O)C(C)C)[C@@H](C)O)C(C)C)C(=O)N[C@@H](CC(C)C)C(=O)N[C@@H](CCC(=O)O)C(=O)NC(C)(C)C(=O)NCC(N)=O) [Peptide 514] | 0.0767 nM | 1.37 nM |
| H[Aib]QGTFTSDVSK[αMeF]LDTK([AEEA-AEEA-γGlu-C20 diacid])AARDFVQWLLE[Aib]G-NH2 (N-terminus assumed; SMILES CC(C)C[C@H](NC(=O)[C@H](Cc1c[nH]c2ccccc12)NC(=O)[C@H](CCC(N)=O)NC(=O)[C@@H](NC(=O)[C@H](Cc1ccccc1)NC(=O)[C@H](CC(=O)O)NC(=O)[C@H](CCCNC(=N)N)NC(=O)[C@H](C)NC(=O)[C@H](C)NC(=O)[C@H](CCCCNC(=O)COCCOCCNC(=O)COCCOCCNC(=O)CC[C@H](NC(=O)CCCCCCCCCCCCCCCCCCC(=O)O)C(=O)O)NC(=O)[C@@H](NC(=O)[C@H](CC(=O)O)NC(=O)[C@H](CC(C)C)NC(=O)[C@](C)(Cc1ccccc1)NC(=O)[C@H](CCCCN)NC(=O)[C@H](CO)NC(=O)[C@@H](NC(=O)[C@H](CC(=O)O)NC(=O)[C@H](CO)NC(=O)[C@@H](NC(=O)[C@H](Cc1ccccc1)NC(=O)[C@@H](NC(=O)CNC(=O)[C@H](CCC(N)=O)NC(=O)C(C)(C)NC(=O)[C@@H](N)Cc1c[nH]cn1)[C@@H](C)O)[C@@H](C)O)C(C)C)[C@@H](C)O)C(C)C)C(=O)N[C@@H](CC(C)C)C(=O)N[C@@H](CCC(=O)O)C(=O)NC(C)(C)C(=O)NCC(N)=O) [Peptide 515] | 0.297 nM | 2.66 nM |
